{"source": "patent US8357523B2", "about": "“Beta-glucosidase variant enzymes and related polynucleotides” (Codexis, Inc., priority 2009, dated 2013)", "key": {"[1]": {"assay": "High throughput cellobiose assay: fold improvement in cellobiase activity of CelA variants over a control enzyme (Tables 2A-2D, 3, 5, 6, 7)", "assay_type": "biochemical", "conditions": "assay of Example 7"}, "[2]": {"assay": "Activity profile at different temperatures and pH using cellobiose (10 g/L) as substrate", "assay_type": "biochemical", "protocol": "β-glucosidase activity was also determined using a cellobiose assay, which used cellobiose as substrate. In a total volume of 100 μL, 25 μL clear media supernatant containing CelA enzyme was added to 10 g/L cellobiose (Fluka Cat. No. 22150, Sigma-Aldrich, Inc., St. Louis, Mo.) in 100 mM sodium phosphate buffer (pH 6-7) or sodium acetate buffer (pH 5-5.5). The reaction was incubated at 45-70° C. for an appropriate time (25 minutes to overnight depending on the enzyme concentration) while shaking. Glucose production was determined using an enzymatic glucose assay (K-GLUC, Megazyme, Ireland). 10 μl of each reaction was added to 190 μl GOPOD reagent (supplied as part of the K-GLUC assay kit). The reaction was incubated at 45° C. for 20 minutes and the absorbance of the solution was measured at 510 nm. The GOPOD reagent contains 50 mM Potassium phosphate buffer pH7.4, 0.011M p-hydroxybenzoic acid, 0.008% w/v sodium azide, glucose oxidase (>12,000 U/L), peroxidase (>650 U/L) and 80 mg/L 4-aminoantipyrine. The glucose oxidase enzyme in the reagent reacts with any glucose present in the sample and produces hydrogen peroxide which then reacts with the 4-aminoantipyrine to produce a quinoneimine dye in quantities proportionate with the amount of glucose present and can be measured spectrophotometrically at 510 nm. Detectable β-glucosidase activity was observed under high throughput screening conditions (i.e., pH 7, 50° C.).\nThe native CelA activity profile was investigated at different temperatures (40-55° C.) and pH (5.0-8.0) using cellobiose (10 g/L) as a substrate. The experimental and analytical procedures are described in Example 5.\nThe activity profiles for Variant Nos. 264, 366, 391, 463, and 529 were determined at different temperatures and pH using cellobiose (10 g/L) as a substrate. The experimental and analytical procedures are described in Example 5, incubating the variant with cellobiose at temperatures in the range of 45-80. The results are depicted in FIGS. 7-11. […] The temperature and pH profile for this variant is depicted in FIG. 7. […] The temperature and pH profile for this variant is depicted in FIG. 8. […] The temperature and pH profile for this variant is depicted in FIG. 9. […] (with the pH 6 optimum determined by extrapolation). The temperature and pH profile for this variant is depicted in FIG. 10. […] The temperature and pH profile for this variant is depicted in FIG. 11."}}}
{"molecule": "Variant No. 264 (protein) SAAIAQEGAAPAAMLHPEKWPRPATQRLIDPAVEKRVDALLKQLSVEEKVGQVIQGDIGTITPEDLRKYPLGSILAGGDSGPNGDDRAPPKEWLDLADAFYRVSLEKRPGHTPIPVLFGIDAVHGHGNIGSATIFPHNIALGMTRDPELLRRIGEVTAEEMAATGIDWTFAPALSVVRDDRWGRTYEGFSEDPEIVASYSAAIVEGVQGKYGSKDFMAPGRAVACAKHFLADGGTDQGRDQGDARISEDELIRIHNAGYPPAIDAGVLTVMASFSSWQGIKHHGHKQLLTDVLKGQMGFNGFIVGDWNAHDQVPGCTKFNCPTSLIAGLDMYMAADSWKQLYENTLAQVKDGTIPMARLDDAVRRILRVKVLAGLFEKPAPKDRPGLPGLETLGSPEHRAVGREAVRKSLVLLKNDKGTLPLSPKARVLVAGDGADNIGKQSGGWTISWQGTGNRNDEFPGATSILGGIRDAVADAGGSVEFDVAGQYKTKPDVAIVVFGEEPYAEFRGDVETLEYQPDQKQDLTLLKKLKDQGIPVVAVFLSGRPMWVNPELNASDAFVAAWLPGTEGGGVADVLFTDKAGKVQHDFAGKLSYSWPRTAAQTTVNRGDADYNPLFAYGYGLTYKDKSKVGTLPEESGVPAEARQN", "values": [{"measurement": "activity (e.g., thermoactivity) over the wildtype A. irakense β-glucosidase", "setting": "[1]", "result": "improved activity"}, {"measurement": "pH of optimum activity", "setting": "[2]", "result": 6, "unit": "pH"}, {"measurement": "temperature of optimum activity", "setting": "[2]", "result": 58, "unit": "°C"}]}
